Values belong to the binder of their own block, whether it stands above or below them.
What was measured:
[1] = target: T1, hFXI.mmh (REGN3848) (human, UniProt P03951 19-625); experiment: SPR (Biacore), mAb captured on anti-hFc, antigen injected, 37C
T1 construct: Human FXI with a C-terminal myc-myc-hexahistidine tag; also called human FXI.mmh; recombinant human FXI
Protocol: (§1) Then, all FXI solutions were injected on Biacore 8K at 30 μL/min for 180 seconds and dissociation was monitored for 10 minutes.

[2] = target: T1, hFXI.mmh (REGN3848); experiment: SPR (Biacore), REGN7508 captured on anti-hFcG, antigen injected, 25C, pH 7.4
Protocol: (§2) Each concentration was tested in duplicate.
(§3) Specific binding signals were obtained by a double referencing procedure and plotted as SPR sensorgrams. […] The kinetic parameters were obtained by globally fitting these specific binding signals to a 1:1 binding model with mass transport limitation. The equilibrium dissociation constant (KD) was calculated from the ratio of the dissociation rate constant to the association rate constant (KD=kd/ka).

[3] = target: T2, human coagulation factor XI (hFXI), plasma-derived (ERL) (human, UniProt P03951 19-625); experiment: as above
T2 construct: also called hFXI (ERL); human FXI
Protocol: as §2, §3

[4] = target: T3, mfFXI.mmh (REGN3883) (cynomolgus monkey (Macaca fascicularis), UniProt A0A2K5VVW4 19-624); experiment: as above
T3 construct: also called monkey FXI.mmh; recombinant cynomolgus monkey FXI; not shown: mmH tag

[5] = target: T4, human activated factor XI (hFXIa), plasma-derived (ERL) (human, UniProt P03951 19-387; P03951 388-625); experiment: as above
T4 construct: After cleavage each subunit is two disulfide-linked chains; also called hFXIa (ERL); human FXIa
Protocol: as §2, §3

[6] = target: T2, human coagulation factor XI (hFXI), …; experiment: SPR (Biacore), mAb captured on anti-hFc, antigen injected, 37C
Protocol: as §1

[7] = target: T2, human coagulation factor XI (hFXI), …; experiment: SPR (Biacore), mAb captured on anti-hFc, antigen injected, 25C
Protocol: as §1

[8] = target: T4, human activated factor XI (hFXIa), …; experiment: as above
Protocol: as §1

[9] = target: T5, rbFXI.mmH (rabbit, UniProt G1SSQ6 19-623); experiment: SPR (Biacore), REGN7508 captured on anti-hFcG, rbFXI.mmH injected, 25C, pH 7.4
T5 construct: also called recombinant rabbit FXI; not shown: mmH tag

[10] = target: T3, mfFXI.mmh (REGN3883); experiment: SPR (Biacore), mAb captured on anti-hFc, antigen injected, 25C
Protocol: as §1

[11] = target: T4, human activated factor XI (hFXIa), …; experiment: SPR (Biacore), mAb captured on anti-hFc, antigen injected, 37C
Protocol: as §1

[12] = target: T2, human coagulation factor XI (hFXI), …; experiment: SPR (Biacore), mAb captured on anti-hFc, antigen injected, 25C; 25 C
Protocol: as §1

[13] = target: T3, mfFXI.mmh (REGN3883); experiment: SPR (Biacore), mAb captured on anti-hFc, antigen injected, 37C
Protocol: as §1

[14] = target: T1, hFXI.mmh (REGN3848); experiment: SPR (Biacore), mAb captured on anti-hFc, antigen injected, 25C
Protocol: as §1

[15] = target: T6, mFXI.mmH (mouse, UniProt Q91Y47 19-624); experiment: SPR (Biacore), REGN7508 captured on anti-hFcG, mFXI.mmH injected, 25C, pH 7.4
T6 construct: also called recombinant mouse FXI; not shown: mmH tag

[16] = target: T2, human coagulation factor XI (hFXI), …; experiment: cell-based or functional assay
[17] = target: T4, human activated factor XI (hFXIa), …; experiment: cell-based or functional assay

T2 sequence (P03951 19-625): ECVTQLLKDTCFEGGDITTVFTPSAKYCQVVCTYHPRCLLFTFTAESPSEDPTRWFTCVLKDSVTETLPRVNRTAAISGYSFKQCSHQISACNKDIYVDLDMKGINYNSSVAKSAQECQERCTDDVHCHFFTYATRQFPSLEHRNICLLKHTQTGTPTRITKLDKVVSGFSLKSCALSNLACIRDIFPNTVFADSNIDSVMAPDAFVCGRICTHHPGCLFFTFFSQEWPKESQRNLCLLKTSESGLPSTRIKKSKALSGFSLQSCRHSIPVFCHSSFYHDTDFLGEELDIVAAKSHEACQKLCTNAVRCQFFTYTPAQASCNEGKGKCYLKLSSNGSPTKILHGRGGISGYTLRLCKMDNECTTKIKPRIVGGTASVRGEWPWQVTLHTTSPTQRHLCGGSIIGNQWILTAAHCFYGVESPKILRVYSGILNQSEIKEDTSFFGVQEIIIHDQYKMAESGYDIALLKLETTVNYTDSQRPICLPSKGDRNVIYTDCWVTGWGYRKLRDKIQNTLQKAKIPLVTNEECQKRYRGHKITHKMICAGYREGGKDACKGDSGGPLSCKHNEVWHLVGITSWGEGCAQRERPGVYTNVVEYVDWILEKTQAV
T1 sequence (P03951 other isoform, or with tags, fused parts or gaps limits assumed): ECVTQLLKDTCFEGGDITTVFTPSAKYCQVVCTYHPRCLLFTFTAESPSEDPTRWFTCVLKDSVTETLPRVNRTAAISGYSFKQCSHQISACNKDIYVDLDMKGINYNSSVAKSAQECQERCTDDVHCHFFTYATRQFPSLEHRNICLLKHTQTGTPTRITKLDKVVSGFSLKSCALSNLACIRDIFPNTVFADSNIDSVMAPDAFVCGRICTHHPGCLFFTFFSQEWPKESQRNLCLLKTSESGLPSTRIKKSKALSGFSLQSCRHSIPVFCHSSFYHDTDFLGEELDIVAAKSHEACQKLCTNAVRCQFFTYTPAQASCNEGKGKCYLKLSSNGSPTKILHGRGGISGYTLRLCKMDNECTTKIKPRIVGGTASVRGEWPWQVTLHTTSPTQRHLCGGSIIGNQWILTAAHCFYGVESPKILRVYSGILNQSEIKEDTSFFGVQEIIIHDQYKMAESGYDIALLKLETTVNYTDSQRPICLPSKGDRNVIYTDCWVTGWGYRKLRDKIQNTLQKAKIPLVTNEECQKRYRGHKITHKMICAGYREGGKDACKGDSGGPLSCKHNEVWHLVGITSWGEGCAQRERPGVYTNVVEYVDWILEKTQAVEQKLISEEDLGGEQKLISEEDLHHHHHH
T3 sequence (A0A2K5VVW4 entry or part of it): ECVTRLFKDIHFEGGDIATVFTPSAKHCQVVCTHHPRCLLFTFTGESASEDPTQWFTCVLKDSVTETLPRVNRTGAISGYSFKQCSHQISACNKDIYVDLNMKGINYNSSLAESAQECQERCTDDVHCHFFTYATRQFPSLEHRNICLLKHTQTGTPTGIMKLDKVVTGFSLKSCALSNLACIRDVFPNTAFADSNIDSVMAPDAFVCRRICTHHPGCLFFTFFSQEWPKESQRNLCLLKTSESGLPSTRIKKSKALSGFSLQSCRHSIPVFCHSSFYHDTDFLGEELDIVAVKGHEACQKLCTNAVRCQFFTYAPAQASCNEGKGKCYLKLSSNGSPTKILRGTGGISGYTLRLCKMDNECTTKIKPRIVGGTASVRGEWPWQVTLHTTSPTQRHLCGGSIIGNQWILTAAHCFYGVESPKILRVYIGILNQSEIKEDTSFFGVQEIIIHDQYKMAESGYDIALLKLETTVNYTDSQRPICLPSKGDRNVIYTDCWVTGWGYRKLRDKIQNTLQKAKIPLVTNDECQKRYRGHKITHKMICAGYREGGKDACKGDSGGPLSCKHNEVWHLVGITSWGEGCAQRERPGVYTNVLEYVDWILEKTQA
T4 sequence (P03951 19-387 limits assumed, chain 1 of 2): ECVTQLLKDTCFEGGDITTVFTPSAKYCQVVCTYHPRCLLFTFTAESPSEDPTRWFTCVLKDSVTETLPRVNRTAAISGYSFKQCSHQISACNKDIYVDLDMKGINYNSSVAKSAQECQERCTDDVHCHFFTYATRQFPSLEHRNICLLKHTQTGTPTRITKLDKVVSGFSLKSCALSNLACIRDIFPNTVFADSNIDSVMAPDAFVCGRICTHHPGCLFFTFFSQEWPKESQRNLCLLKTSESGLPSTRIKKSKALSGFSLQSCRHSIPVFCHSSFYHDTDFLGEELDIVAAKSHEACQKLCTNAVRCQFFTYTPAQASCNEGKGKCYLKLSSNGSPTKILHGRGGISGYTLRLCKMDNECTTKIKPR
T4 sequence (P03951 388-625 limits assumed, chain 2 of 2): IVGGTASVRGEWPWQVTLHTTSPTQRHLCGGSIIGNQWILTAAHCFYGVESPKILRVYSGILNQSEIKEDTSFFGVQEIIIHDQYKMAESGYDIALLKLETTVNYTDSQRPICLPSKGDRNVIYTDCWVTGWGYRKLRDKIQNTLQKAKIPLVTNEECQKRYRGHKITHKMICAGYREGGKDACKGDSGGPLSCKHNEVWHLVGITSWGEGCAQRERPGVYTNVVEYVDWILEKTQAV
T5 sequence (G1SSQ6 entry or part of it): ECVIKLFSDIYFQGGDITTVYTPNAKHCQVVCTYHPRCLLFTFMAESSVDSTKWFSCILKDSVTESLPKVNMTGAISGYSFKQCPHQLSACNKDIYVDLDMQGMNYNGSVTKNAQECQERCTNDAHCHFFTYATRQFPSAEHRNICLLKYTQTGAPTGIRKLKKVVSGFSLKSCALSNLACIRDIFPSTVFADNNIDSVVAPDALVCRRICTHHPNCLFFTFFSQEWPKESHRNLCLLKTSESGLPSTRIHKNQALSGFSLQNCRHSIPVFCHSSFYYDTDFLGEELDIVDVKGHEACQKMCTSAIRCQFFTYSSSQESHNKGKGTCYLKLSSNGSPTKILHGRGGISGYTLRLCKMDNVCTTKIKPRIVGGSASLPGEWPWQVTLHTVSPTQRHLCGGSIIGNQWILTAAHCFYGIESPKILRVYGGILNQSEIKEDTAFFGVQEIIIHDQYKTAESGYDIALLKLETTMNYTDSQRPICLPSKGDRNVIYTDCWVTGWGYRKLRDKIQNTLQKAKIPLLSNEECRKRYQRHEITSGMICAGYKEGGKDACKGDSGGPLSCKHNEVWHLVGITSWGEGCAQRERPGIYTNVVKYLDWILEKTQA
T6 sequence (Q91Y47 19-624): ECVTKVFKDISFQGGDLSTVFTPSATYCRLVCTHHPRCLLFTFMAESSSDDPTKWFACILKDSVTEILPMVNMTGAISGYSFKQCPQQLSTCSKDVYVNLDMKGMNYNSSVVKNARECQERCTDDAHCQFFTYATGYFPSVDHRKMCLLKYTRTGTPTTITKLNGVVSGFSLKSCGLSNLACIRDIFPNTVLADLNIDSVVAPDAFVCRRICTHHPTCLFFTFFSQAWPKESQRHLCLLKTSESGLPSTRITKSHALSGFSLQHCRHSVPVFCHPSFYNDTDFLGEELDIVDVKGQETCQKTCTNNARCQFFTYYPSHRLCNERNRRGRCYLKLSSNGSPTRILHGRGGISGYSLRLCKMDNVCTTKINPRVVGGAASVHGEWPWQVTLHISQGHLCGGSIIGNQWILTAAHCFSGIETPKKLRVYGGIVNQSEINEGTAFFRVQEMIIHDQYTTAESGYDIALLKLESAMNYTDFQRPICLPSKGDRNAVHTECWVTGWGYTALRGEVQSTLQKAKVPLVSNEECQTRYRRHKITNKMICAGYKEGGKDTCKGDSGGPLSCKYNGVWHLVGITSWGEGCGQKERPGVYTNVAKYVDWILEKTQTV

Kd [1]: 0.0326 nM | koff [1]: 8.86e-05 s⁻¹ | kon [1]: 2.71e+06 M⁻¹ s⁻¹ | t½ [1]: 2.17 h | Kd [2]: 0.00807 nM | koff [2]: 2.7e-05 s⁻¹ | kon [2]: 3.34e+06 M⁻¹ s⁻¹ | t1/2 [2]: 7.13 h | Kd [3]: 0.003 nM | koff [3]: 9.36e-06 s⁻¹ | kon [3]: 3.12e+06 M⁻¹ s⁻¹ | t1/2 [3]: 20.6 h | Kd [4]: 0.00373 nM | koff [4]: 9.62e-06 s⁻¹ | kon [4]: 2.58e+06 M⁻¹ s⁻¹ | t1/2 [4]: 20 h | Kd [5]: 0.0102 nM | koff [5]: 3.61e-05 s⁻¹ | kon [5]: 3.55e+06 M⁻¹ s⁻¹ | t1/2 [5]: 5.33 h | Kd [6]: ≤ 0.00309 nM | koff [6]: ≤ 1e-05 s⁻¹ | kon [6]: 3.24e+06 M⁻¹ s⁻¹ | t½ [6]: ≥ 19.2 h | koff [7]: ≤ 1e-05 s⁻¹ | kon [7]: 2.2e+06 M⁻¹ s⁻¹ | t½ [7]: ≥ 19.2 h | Kd [8]: ≤ 0.0311 nM | koff [8]: ≤ 1e-05 s⁻¹ | kon [8]: 321000 M⁻¹ s⁻¹ | t½ [8]: ≥ 19.2 h | binding result [9]: no binding (tested: 250 nM) | Kd [10]: ≤ 0.00481 nM | koff [10]: ≤ 1e-05 s⁻¹ | kon [10]: 2.08e+06 M⁻¹ s⁻¹ | t½ [10]: ≥ 19.2 h | Kd [11]: 0.256 nM | koff [11]: 0.000121 s⁻¹ | kon [11]: 475000 M⁻¹ s⁻¹ | t½ [11]: 1.58 h | Kd [12]: ≤ 0.00454 nM | Kd [13]: 0.0435 nM | koff [13]: 0.000111 s⁻¹ | kon [13]: 2.56e+06 M⁻¹ s⁻¹ | t½ [13]: 1.73 h | Kd [14]: ≤ 0.00534 nM | koff [14]: ≤ 1e-05 s⁻¹ | kon [14]: 1.87e+06 M⁻¹ s⁻¹ | t½ [14]: ≥ 19.2 h | binding result [15]: no binding (tested: 50 nM)
B1: REGN7508 (antibody, human IgG4 S228P, kappa, V domains shown)
VH: QVQLVESGGGLVKPGGSLRLSCAASGFTFSDYSMNWIRQAPGKGLEWISYISFSGNSIYYADSVKGRFTISRDNAKNSLYLQMNSLRVEDTAIYYCTSRDWGYAFDIWGQGTMVTVSS
VL: DIQMTQSPSFLSASLGDRVTITCQASQDISNYLNWYQVKPGKAPKLLIYDASNLETGVPSRFSGSGSGTDFTFTISSLQPEDIATYFCQQYDNLPYIFGQGTKLEIKR
notes: also called Subject mAb [REGN7508]; subject anti-FXI mAb

Kd [1]: 0.387 nM | koff [1]: 8.77e-05 s⁻¹ | kon [1]: 226000 M⁻¹ s⁻¹ | t½ [1]: 2.19 h | Kd [6]: 0.0365 nM | koff [6]: ≤ 1e-05 s⁻¹ | kon [6]: 274000 M⁻¹ s⁻¹ | t½ [6]: ≥ 19.2 h | Kd [7]: ≤ 0.119 nM | koff [7]: ≤ 1e-05 s⁻¹ | kon [7]: 83800 M⁻¹ s⁻¹ | t½ [7]: ≥ 19.2 h | Kd [10]: ≤ 0.0644 nM | koff [10]: ≤ 1e-05 s⁻¹ | kon [10]: 155000 M⁻¹ s⁻¹ | t½ [10]: ≥ 19.2 h | Kd [13]: 0.268 nM | koff [13]: 8.6e-05 s⁻¹ | kon [13]: 321000 M⁻¹ s⁻¹ | t½ [13]: 2.24 h | IC50 [M], FXI, 0.13% plasma (chromogenic FXa generation, BIOPHEN Factor XIa kit) [16]: 1.9e-10 M | IC50 [M], FXIa, 0.13% plasma (chromogenic FXa generation, BIOPHEN Factor XIa kit) [17]: > 1e-08 M | Kd [14]: ≤ 0.116 nM | koff [14]: ≤ 1e-05 s⁻¹ | kon [14]: 86200 M⁻¹ s⁻¹ | t½ [14]: ≥ 19.2 h
B2: REGN9932 (antibody, human IgG4 S228P, kappa, V domains shown)
VH: QVQLVESGGGVVQPGRSLRLSCAASGFTFSNYEMHWVRQTPGKGLEWVALIWYDGSNKYSGDSVKGRFTISRDNSKSTLYLQMNSLTAEDTAVYYCTGITGTEDAFDVWGQGTMVTVSS
VL: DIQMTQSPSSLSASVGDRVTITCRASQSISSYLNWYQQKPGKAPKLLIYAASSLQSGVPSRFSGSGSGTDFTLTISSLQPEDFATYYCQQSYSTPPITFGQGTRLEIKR
notes: also called anti-FXI mAb [REGN9932]

— patent publication US20240190996A1 (Regeneron, published 2024)
